Measured values published in patent US9322000B2, “Methanol dehydrogenase enzymes from Bacillus” (Sinvent AS, priority 2012, dated 2016).

Assays:
[1] = test system: 13C-methanol; assay: 13C-methanol labeling of genetically engineered C. glutamicum; assay type: cell-based; conditions: C. glutamicum delta ald expressing Mdh2, Hps and Phi; 40 mM 13C-methanol; 30 and 90 minutes
Description: For the labeling experiments we used the C. glutamicum delta ald strain that expresses Mdh2-MGA3 (pVWEx1-Mdh2), Hps and Phi (pEKEX3−Hps+Phi). As a negative control the C. glutamicum delta ald strain with the empty pEKEX3 plasmid was used. All C. glutamicum strains were grown on M9 medium containing (per liter) 3.48 g Na2HPO4.12 H2O, 0.60 g of KH2PO4, 0.51 g of NaCl, 2.04 g of NH4Cl, 0.10 g of MgSO4, 4.38 mg of CaCl2, 15 mg of Na2EDTA.2H2O, 4.5 mg of ZnSO4.7 H2O, 0.3 mg of CoCl2.6 H2O, 1 mg of MnCl2.4H2O, 1 mg of H3BO3, 0.4 mg of Na2MoO4.2H2O, 3 mg of FeSO4.7H2O and 0.3 mg of CuSO4.5H2O. For all the cultivation (M9 or LB), 1 mM of IPTG was used as inducer and 100 μg/ml of spectinomycin and 25 μg/ml of kanamycin were added in the medium as resistant markers. All the cultivations were performed at 30° C. Cell strains were plated from a glycerol stock on a LB agar plate (10 g/l of tryptone, 5 g/l of yeast extract, 10 g/l of NaCl, and 16 g/l agar) and grown afterwards on a LB liquid medium for 6 hours. The liquid pre-cultures containing M9 medium plus 3 g/l ribose were inoculated from the LB cultures at a final OD600 of 0.6 for 12 hours. […] The labeling patterns of intracellular metabolites were measured using a Dionex ICS 2000 system (Dionex, Sunnyvale, USA) coupled to a triple quadrupole QTrap 4000 mass spectrometer (Applied Biosystems, Foster City, USA).

[2] = test system: 13C-methanol; assay: 13C-methanol labeling of genetically engineered B. subtilis; assay type: cell-based; conditions: B. subtilis 168 expressing Act, Mdh3, HxlA
Description: For the labeling experiments we used the B. subtilis strain that expresses Act, Mdh3, HxlA and HxlB and the strain that expresses Act, Mdh3, HxlA, HxlB, GlpX, Fba, Tkt, Pfk and Rpe. As a negative control the B. subtilis strain with the empty pHCMC04 plasmid was used. All B. subtilis strains were grown on M9 medium containing (per liter) 3.48 g Na2HPO4.12H20, 0.60 g of KH2PO4, 0.51 g of NaCl, 2.04 g of NH4Cl, 0.10 g of MgSO4, 4.38 mg of CaCl2, 15 mg of Na2EDTA.2H2O, 4.5 mg of ZnSO4.7H2O, 0.3 mg of CoCl2.6 H2O, 1 mg of MnCl2.4H2O, 1 mg of H3BO3, 0.4 mg of Na2MoO4.2H2O, 3 mg of FeSO4.7H2O and 0.3 mg of CuSO4.5H2O, 10 g of xylose (i.e. inducer) and 5 mg of chloramphenicol. All the cultivations were performed at 37° C. Cells strains were plated from a glycerol stock on a LB agar plate (10 g/l of tryptone, 5 g/l of yeast extract, 10 g/l of NaCl, and 16 g/l agar) containing 5 μg/ml of chloramphenicol and grown afterwards on a LB+chloramphenicol liquid medium for approximately 5 hours. The liquid pre-cultures containing M9 medium were inoculated from the LB cultures at a final OD600 between 1.4 and 1.8. […] The labeling patterns of intracellular metabolites were measured using a Dionex ICS 2000 system (Dionex, Sunnyvale, USA) coupled to a triple quadrupole QTrap 4000 mass spectrometer (Applied Biosystems, Foster City, USA).

[3] = Alcohol dehydrogenase assay of purified MDH proteins with ethanol as substrate; assay type: biochemical
Description: Alcohol dehydrogenase activities were measured spectrophotometrically essentially as described previously (Hektor, Kloosterman et al. (2002) Chem 277(49): 46966-46973) and the reaction mixture contained: 100 mM Glycine-KOH pH 9.5 (unless otherwise stated), 5 mM MgSO4, 0.5 mM NAD^+ and 500 mM alcohol (methanol, ethanol, propanol, 1,3-propanediol, or butanol). NAD^+ was substituted with equal concentrations of NADP^+, FMN^+, and FAD^+, when indicated. The reaction mixture for measurements of formaldehyde reductase activity contained: 50 mM Potassium-phosphate buffer pH=6.7, 0.15 mM NADH, 1 mM DTT and 11.6 mM (0.1-116 mM) formaldehyde. The assay components were mixed in the cuvette and pre-warmed to 45° C., unless otherwise stated. The reactions were started by addition of 5-40 μg of the purified MDH proteins, and the production of NADH was monitored at 340 nm for 4 minutes. One unit of MDH activity was defined as the amount of enzyme needed to produce 1 μmol NADH per minute under the conditions described above. Purified Act (0.1-40 μg) or NudF (20 μg) proteins were added to the reaction mixtures as indicated in the text.
In order to establish reliable assay conditions for comparative biochemical characterizations, the six MDH proteins were analysed for pH and temperature optima. […]

B1: Mdh2-MGA3: NAD-dependent methanol dehydrogenase encoded by chromosomal gene mdh2 of B. methanolicus MGA3, SEQ ID NO. 2 (protein)
chain: MTNTQSAFFMPSVNLFGAGSVNEVGTRLADLGVKKALLVTDAGLHGLGLSEKISSIIRAAGVEVSIFPKAEPNPTDKNVAEGLEAYNAENCDSIVTLGGGSSHDAGKAIALVAANGGKIHDYEGVDVSKEPMVPLIAINTTAGTGSELTKFTIITDTERKVKMAIVDKHVTPTLSINDPELMVGMPPSLTAATGLDALTHAIEAYVSTGATPITDALAIQAIKIISKYLPRAVANGKDIEAREQMAFAQSLAGMAFNNAGLGYVHAIAHQLGGFYNFPHGVCNAVLLPYVCRFNLISKVERYAEIAAFLGENVDGLSTYDAAEKAIKAIERMAKDLNIPKGFKELGAKEEDIETLAKNAMKDACALTNPRKPKLEEVIQIIKNAM
modifications: Bacillus methanolicus MGA3
13C label incorporation into metabolites (mass isotopomer fraction M1) [1]: Significant label incorporation into metabolites was observed

B2: Mdh3-MGA3: NAD-dependent methanol dehydrogenase encoded by chromosomal gene mdh3 of B. methanolicus MGA3, SEQ ID NO. 4 (protein)
chain: MKNTQSAFYMPSVNLFGAGSVNEVGTRLAGLGVKKALLVTDAGLHSLGLSEKIAGIIREAGVEVAIFPKAEPNPTDKNVAEGLEAYNAENCDSIVTLGGGSSHDAGKAIALVAANGGTIHDYEGVDVSKKPMVPLIAINTTAGTGSELTKFTIITDTERKVKMAIVDKHVTPTLSINDPELMVGMPPSLTAATGLDALTHAIEAYVSTGATPITDALAIQAIKIISKYLPRAVANGKDIEAREQMAFAQSLAGMAFNNAGLGYVHAIAHQLGGFYNFPHGVCNAILLPHVCRFNLISKVERYAEIAAFLGENVDGLSTYEAAEKAIKAIERMARDLNIPKGFKELGAKEEDIETLAKNAMNDACALTNPRKPKLEEVIQIIKNAM
modifications: Bacillus methanolicus MGA3
13C labeling of metabolites (mass isotopomer fraction M1) ([2]; HxlB plus overexpressed PPP genes): significant labeling incorporation was detected
13C labeling of metabolites (mass isotopomer fraction M1) ([2]; HxlB, no PPP genes overexpressed): no labeling was found

B3: Mdh-MGA3: previously reported plasmid pBM19-encoded NAD-dependent methanol dehydrogenase of B. methanolicus MGA3, SEQ ID NO. 8 (protein)
chain: MTTNFFIPPASVIGRGAVKEVGTRLKQIGAKKALIVTDAFLHSTGLSEEVAKNIREAGVDVAIFPKAQPDPADTQVHEGVDVFKQENCDSLVSIGGGSSHDTAKAIGLVAANGGRINDYQGVNSVEKPVVPVVAITTTAGTGSETTSLAVITDSARKVKMPVIDEKITPTVAIVDPELMVKKPAGLTIATGMDALSHAIEAYVAKGATPVTDAFAIQAMKLINEYLPKAVANGEDIEAREKMAYAQYMAGVAFNNGGLGLVHSISHQVGGVYKLQHGICNSVNMPHVCAFNLIAKTERFAHIAELLGENVAGLSTAAAAERAIVALERINKSFGIPSGYAEMGVKEEDIELLAKNAYEDVCTQSNPRVPTVQDIAQIIKNAM
modifications: Bacillus methanolicus MGA3
stimulation of Mdh activity with NudF ([3]; B. subtilis NudF added): about 8 fold
increase of catalytic activity in the presence of Act ([3]; MDH and Act 1:1): about 8 fold
